# Substitutions are numbered along the chain they refer to. Names may count otherwise.
# B1: CE115HA000 D101I one-arm antibody (antibody, human IgG1, kappa, L234A L235A, N297A, name in Kabat numbering)
# heavy: QVQLVESGGGVVQPGRSLRLSCAASGFTFSNAWMHWVRQAPGKGLEWVAQIKAKSNNYATYYAESVKGRFTISRDDSKNSLYLQMNSLKTEDTAVYYCRYVHYGAYYGVIAWGQGTTVTVSSASTKGPSVFPLAPSSKSTSGGTAALGCLVKDYFPEPVTVSWNSGALTSGVHTFPAVLQSSGLYSLSSVVTVPSSSLGTQTYICNVNHKPSNTKVDKKVEPKSCDKTHTCPPCPAPEAAGGPSVFLFPPKPKDTLMISRTPEVTCVVVDVSHEDPEVKFNWYVDGVEVHNAKTKPREEQYASTYRVVSVLTVLHQDWLNGKEYKCKVSNKALPAPIEKTISKAKGQPREPQVYTLPPSRCELTKNQVSLSCAVKGFYPSDIAVEWESNGQPENNYKTTPPVLDSDGSFFLVSKLTVDKSRWQQGNVFSCSVMHEALHNHYTQKSLSLSPDYKDDDDK
# chain: EPKSSDKTHTCPPCPAPELLGGPSVFLFPPKPKDTLMISRTPEVTCVVVDVSHEDPEVKFNWYVDGVEVHNAKTKPREEQYNSTYRVVSVLTVLHQDWLNGKEYKCKVSNKALPAPIEKTISKAKGQPREPQVCTLPPSRDELTKNQVSLWCLVKGFYPSDIAVEWESNGQPENNYKTTPPVLDSDGSFFLYSKLTVDKSRWQQGNVFSCSVMHEALHNRYTQKSLSLSP
# light: DIVMTQSPLSLPVTPGEPASISCRSSQSLVHSNRNTYLHWYQQKPGQAPRLLIYKVSNRFSGVPDRFSGSGSGTDFTLKISRVEAEDVGVYYCGQGTQVPYTFGQGTKLEIKRTVAAPSVFIFPPSDEQLKSGTASVVCLLNNFYPREAKVQWKVDNALQSGNSQESVTEQDSKDSTYSLSSTLTLSKADYEKHKVYACEVTHQGLSSPVTKSFNRGEC
# B2: CE115HA000 G100bF one-arm antibody (antibody, human IgG1, kappa, L234A L235A, N297A, name in Kabat numbering)
# heavy: B1 heavy with G108F, I110D
# chain: B1 chain
# light: B1 light
# B3: CE115HA000 D101R one-arm antibody (antibody, human IgG1, kappa, L234A L235A, N297A, name in Kabat numbering)
# heavy: B1 heavy with I110R
# chain: B1 chain
# light: B1 light
# B4: CE115HA000 G65E one-arm antibody (antibody, human IgG1, kappa, L234A L235A, N297A, name in Kabat numbering)
# heavy: B1 heavy with G68E, I110D
# chain: B1 chain
# light: B1 light
# B5: CE115HA000 D101P one-arm antibody (antibody, human IgG1, kappa, L234A L235A, N297A, name in Kabat numbering)
# heavy: B1 heavy with I110P
# chain: B1 chain
# light: B1 light
# B6: CE115HA000 E61D one-arm antibody (antibody, human IgG1, kappa, L234A L235A, N297A, name in Kabat numbering)
# heavy: B1 heavy with E64D, I110D
# chain: B1 chain
# light: B1 light
# B7: CE115HA000 D101M one-arm antibody (antibody, human IgG1, kappa, L234A L235A, N297A, name in Kabat numbering)
# heavy: B1 heavy with I110M
# chain: B1 chain
# light: B1 light
# B8: CE115HA000 G98T one-arm antibody (antibody, human IgG1, kappa, L234A L235A, N297A, name in Kabat numbering)
# heavy: B1 heavy with G104T, I110D
# chain: B1 chain
# light: B1 light
# B9: CE115HA000 D101V one-arm antibody (antibody, human IgG1, kappa, L234A L235A, N297A, name in Kabat numbering)
# heavy: B1 heavy with I110V
# chain: B1 chain
# light: B1 light
# B10: CE115HA000 D101S one-arm antibody (antibody, human IgG1, kappa, L234A L235A, N297A, name in Kabat numbering)
# heavy: B1 heavy with I110S
# chain: B1 chain
# light: B1 light
# B11: CE115HA000 G98D one-arm antibody (antibody, human IgG1, kappa, L234A L235A, N297A, name in Kabat numbering)
# heavy: B1 heavy with G104D, I110D
# chain: B1 chain
# light: B1 light
# B12: CE115HA000 G98Q one-arm antibody (antibody, human IgG1, kappa, L234A L235A, N297A, name in Kabat numbering)
# heavy: B1 heavy with G104Q, I110D
# chain: B1 chain
# light: B1 light
# B13: CE115HA000 E61P one-arm antibody (antibody, human IgG1, kappa, L234A L235A, N297A, name in Kabat numbering)
# heavy: B1 heavy with E64P, I110D
# chain: B1 chain
# light: B1 light
# B14: CE115HA000 G98K one-arm antibody (antibody, human IgG1, kappa, L234A L235A, N297A, name in Kabat numbering)
# heavy: B1 heavy with G104K, I110D
# chain: B1 chain
# light: B1 light
# B15: CE115HA000 G98Y one-arm antibody (antibody, human IgG1, kappa, L234A L235A, N297A, name in Kabat numbering)
# heavy: B1 heavy with G104Y, I110D
# chain: B1 chain
# light: B1 light
# B16: CE115HA000 D101N one-arm antibody (antibody, human IgG1, kappa, L234A L235A, N297A, name in Kabat numbering)
# heavy: B1 heavy with I110N
# chain: B1 chain
# light: B1 light
# B17: CE115HA000 D101Y one-arm antibody (antibody, human IgG1, kappa, L234A L235A, N297A, name in Kabat numbering)
# heavy: B1 heavy with I110Y
# chain: B1 chain
# light: B1 light
# B18: CE115HA000 D101T one-arm antibody (antibody, human IgG1, kappa, L234A L235A, N297A, name in Kabat numbering)
# heavy: B1 heavy with I110T
# chain: B1 chain
# light: B1 light
# B19: CE115HA000 E61A one-arm antibody (antibody, human IgG1, kappa, L234A L235A, N297A, name in Kabat numbering)
# heavy: B1 heavy with E64A, I110D
# chain: B1 chain
# light: B1 light
# B20: CE115HA000 G98A one-arm antibody (antibody, human IgG1, kappa, L234A L235A, N297A, name in Kabat numbering)
# heavy: B1 heavy with G104A, I110D
# chain: B1 chain
# light: B1 light
# B21: CE115HA000 G98P one-arm antibody (antibody, human IgG1, kappa, L234A L235A, N297A, name in Kabat numbering)
# heavy: B1 heavy with G104P, I110D
# chain: B1 chain
# light: B1 light
# B22: CE115HA000 G65D one-arm antibody (antibody, human IgG1, kappa, L234A L235A, N297A, name in Kabat numbering)
# heavy: B1 heavy with G68D, I110D
# chain: B1 chain
# light: B1 light
# B23: CE115HA000 G98S one-arm antibody (antibody, human IgG1, kappa, L234A L235A, N297A, name in Kabat numbering)
# heavy: B1 heavy with G104S, I110D
# chain: B1 chain
# light: B1 light
# B24: CE115HA000 D101L one-arm antibody (antibody, human IgG1, kappa, L234A L235A, N297A, name in Kabat numbering)
# heavy: B1 heavy with I110L
# chain: B1 chain
# light: B1 light
# B25: CE115HA000 G100bE one-arm antibody (antibody, human IgG1, kappa, L234A L235A, N297A, name in Kabat numbering)
# heavy: B1 heavy with G108E, I110D
# chain: B1 chain
# light: B1 light
# B26: CE115HA000 G98R one-arm antibody (antibody, human IgG1, kappa, L234A L235A, N297A, name in Kabat numbering)
# heavy: B1 heavy with G104R, I110D
# chain: B1 chain
# light: B1 light
# B27: CE115HA000 D101Q one-arm antibody (antibody, human IgG1, kappa, L234A L235A, N297A, name in Kabat numbering)
# heavy: B1 heavy with I110Q
# chain: B1 chain
# light: B1 light
# B28: CE115HA000 G100bL one-arm antibody (antibody, human IgG1, kappa, L234A L235A, N297A, name in Kabat numbering)
# heavy: B1 heavy with G108L, I110D
# chain: B1 chain
# light: B1 light
# B29: CE115HA000 G98H one-arm antibody (antibody, human IgG1, kappa, L234A L235A, N297A, name in Kabat numbering)
# heavy: B1 heavy with G104H, I110D
# chain: B1 chain
# light: B1 light
# B30: CE115HA000 G100bD one-arm antibody (antibody, human IgG1, kappa, L234A L235A, N297A, name in Kabat numbering)
# heavy: B1 heavy with G108D, I110D
# chain: B1 chain
# light: B1 light
# B31: CE115HA000 F29V one-arm antibody (antibody, human IgG1, kappa, L234A L235A, N297A, name in Kabat numbering)
# heavy: B1 heavy with F29V, I110D
# chain: B1 chain
# light: B1 light
# B32: CE115HA000 E61Q one-arm antibody (antibody, human IgG1, kappa, L234A L235A, N297A, name in Kabat numbering)
# heavy: B1 heavy with E64Q, I110D
# chain: B1 chain
# light: B1 light
# B33: CE115HA000 D101K one-arm antibody (antibody, human IgG1, kappa, L234A L235A, N297A, name in Kabat numbering)
# heavy: B1 heavy with I110K
# chain: B1 chain
# light: B1 light
# Target: T1, CD3 epsilon homodimer protein (UniProt P07766 23-126)
# T1 construct: immobilized on Sensor chip CM4 by amine coupling; also called CD3 (CD3 epsilon)
# T1 sequence (P07766 23-126): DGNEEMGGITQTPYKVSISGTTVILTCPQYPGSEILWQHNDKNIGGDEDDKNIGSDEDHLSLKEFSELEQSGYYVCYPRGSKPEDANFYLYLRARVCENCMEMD
# Assay: SPR (Biacore T200), CD3 epsilon homodimer on CM4 chip, one-arm antibody as analyte, 25 C;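 further: homodimer attached to the sensor surface via amine coupling, HBS-EP+ used as running buffer during binding runs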
row,ratio of amounts bound (altered form / CE115HA000),Binder
1,1.18,B1
2,0.3,B2
3,0.24,B3
4,0.78,B4
5,0.2,B5
6,0.91,B6
7,1.2,B7
8,1.05,B8
9,1.33,B9
10,1.16,B10
11,0.26,B11
12,1.22,B12
13,1.07,B13
14,2.83,B14
15,2.22,B15
16,2.02,B16
17,0.49,B17

row,ratio of amounts bound (altered form / CE115HA000),Binder
1,0.79,B18
2,1.09,B19
3,1.1,B20
4,1.02,B21
5,0.76,B22
6,1.01,B23
7,0.62,B24
8,0.26,B25
9,2.96,B26
10,2.35,B27
11,0.27,B28
12,1.58,B29
13,0.27,B30
14,0.36,B31
15,1.07,B32
16,0.63,B33

# Reference: patent US20210388087A1 (Chugai, published 2021)
